Source: doi:10.1101/525485 (bioRxiv, 2019)
Positions count from the first letter of the chain named. Names and notes keep the numbering of the source.

Legend:
ITC = target: the molecule itself; assay: ITC
human PCNA, purified = human PCNA, purified (human, UniProt P12004 1-261); assay: ITC
cross-linking = target: the molecule itself; assay: cross-linking
native gel or EMSA = target: the molecule itself; assay: native gel or EMSA

Chain of human PCNA, purified (P12004 whole entry): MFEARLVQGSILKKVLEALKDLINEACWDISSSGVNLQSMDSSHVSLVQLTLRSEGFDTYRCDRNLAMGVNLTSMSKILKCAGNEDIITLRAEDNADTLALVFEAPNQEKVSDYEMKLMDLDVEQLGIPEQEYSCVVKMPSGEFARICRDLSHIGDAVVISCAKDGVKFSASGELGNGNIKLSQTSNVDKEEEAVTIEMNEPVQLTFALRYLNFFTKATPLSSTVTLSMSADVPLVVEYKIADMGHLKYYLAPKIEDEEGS

B1: p12 subunit of human DNA polymerase delta, purified, GST tag cleaved off (natural protein)
chain: MGRKRLITDSYPVVKRREGPAGHSKGELAPELGEEPQPRDEEEAELELLRQFDLAWQYGPCTGITRLQRWCRAKQMGLEPPPEVWQVLKTHPGDPRFQCSLWHLYPL
- Kd (ITC): ~0.146 µM
- dH (ITC): ~-1.82 kcal/mol
- stoichiometry N (ITC): ~0.6
- Kd (human PCNA, purified): 10 µM
- stoichiometry N (cross-linking): 2

B2: p12 L104A, Y105A mutant, purified (natural protein)
chain: B1 chain with L104A, Y105A
- stoichiometry N (cross-linking): 2

B3: Cdm1, fourth subunit of S. pombe DNA polymerase delta, purified (natural protein)
chain: MKKRTTQAKKSGQNTNIRDVFPHVVRSNSSQSHIGKKVSSEQSPTPDVTITTKTLDERIKEDDELSKEVEEAWNQIMAERISEPIHCENITKVEFILHHFDTTARYGPYLGMTRMQRWKRAKNFNLNPPETVGKILMLEEADEENRKRESLFYDLQTIPG
- binding result (native gel or EMSA): binds
